The record followed here is PMC6586891, “On the molecular and cellular effects of omeprazole to further support its effectiveness as an antigiardial drug” (Scientific Reports, 2019).

This series concerns O=CC(O)COP(=O)(O)O. As to the kind of experiment: Michaelis-Menten kinetics of purified enzyme (Km), coupled alpha-GDH/NADH assay. The series is classed as biochemical, Giardia duodenalis.

For “Giardia lamblia triosephosphate isomerase (GlTIM Tmut) (Giardia duodenalis; C202A/C222A/C228A)”, the Km came to 1200 ± 90 µM and the catalytic efficiency (kcat/Km) was found to be 1.92e+06 M⁻¹ s⁻¹.

As usually defined, the Km is the substrate concentration at which the rate is half of its maximum. What is called kcat/Km is the turnover number divided by the Michaelis constant.
